Reference: article doi:10.1101/189324
Where two headings read alike, the source gives them in different places.

How the values were obtained:
[1] = biological target: Insulin (purified, used in vitro)
[2] = biological target: Insulin (purified, used in vitro); test: BLI
[3] = biological target: Insulin (purified, used in vitro); test: BLI; remark: listed apart in the source

ThT fluorescence, heat-induced fibrillation of insulin with apo-SCGN (1:2 ratio) [1]: 50% | Kd [2]: 1.84 µM | Kd [3]: 1.45 µM
B1: Recombinant His-tagged secretagogin (SCGN) (natural protein)
chain: MDNARRKTPARLDAACFWQIWQRFDKEEKGYIRETELDAFFDHLLAKSGTEDTLMEENVQKVKEQLMTSHNVSKEGRILMKELASMFLSEDENFLLFFRLETPLDNSVEFMQIWRKYDADSSGFISAAELCNFLRDLFLHHKKNISEAELEEYTSTMMKIFDKNKDGRLDLNDLARILALQENFLLQFKMDASSTEERKRDFEKIFAHYDVSKTGALEGPEVDGFVKDMMELVQPSISGVDLDKFREILLRHCDVNKDGKIQKSELALCLGLKINP
